Data taken from the Immune Epitope Database (IEDB).
Values belong to the sequence of their own block, whether it stands above or below them.

Columns and labels:
[1] = biological target: HLA-B*35:01; experiment: IEDB peptide-MHC binding, purified MHC/competitive/radioactivity; filed as Kd, often an IC50 or EC50 that approximates it; ≥ and ≤ were set here for values at or beyond the usual limits of such assays
[2] = biological target: HLA-B*07:02; experiment: as above
[3] = biological target: HLA-B*53:01; experiment: as above
[4] = biological target: HLA-B*54:01; experiment: as above
[5] = biological target: HLA-B*51:01; experiment: as above
[6] = biological target: HLA-A*02:01; experiment: IEDB peptide-MHC binding, purified MHC/competitive/fluorescence; filed as Kd, often an IC50 or EC50 that approximates it; ≥ and ≤ were set here for values at or beyond the usual limits of such assays
[7] = biological target: HLA-A*01:01; experiment: as above
[8] = biological target: HLA-C*03:03; experiment: IEDB peptide-MHC binding, purified MHC/direct/fluorescence; filed as Kd, often an IC50 or EC50 that approximates it; ≥ and ≤ were set here for values at or beyond the usual limits of such assays; details: source organism: Escherichia coli F11
[9] = biological target: HLA-B*58:01; experiment: IEDB peptide-MHC binding, purified MHC/competitive/radioactivity; filed as Kd, often an IC50 or EC50 that approximates it; ≥ and ≤ were set here for values at or beyond the usual limits of such assays
[10] = biological target: HLA-B*57:01; experiment: as above
[11] = biological target: HLA-A*68:02; experiment: as above
[12] = biological target: HLA-A*02:01; experiment: as above; details: source organism: Vaccinia virus WR
[13] = biological target: HLA-A*03:01; experiment: as above; details: source organism: Vaccinia virus WR
[14] = biological target: HLA-A*33:01; experiment: as above; details: source organism: Vaccinia virus WR
[15] = biological target: HLA-A*68:01; experiment: as above; details: source organism: Vaccinia virus WR
[16] = biological target: HLA-A*31:01; experiment: as above; details: source organism: Vaccinia virus WR
[17] = biological target: HLA-A*02:03; experiment: as above; details: source organism: Vaccinia virus WR
[18] = biological target: HLA-A*11:01; experiment: as above; details: source organism: Vaccinia virus WR
[19] = biological target: HLA-A*02:02; experiment: as above; details: source organism: Vaccinia virus WR
[20] = biological target: HLA-A*02:06; experiment: as above; details: source organism: Vaccinia virus WR
[21] = biological target: HLA-A*68:02; experiment: IEDB peptide-MHC binding, purified MHC/competitive/fluorescence; filed as Kd, often an IC50 or EC50 that approximates it; ≥ and ≤ were set here for values at or beyond the usual limits of such assays; details: source organism: Burkholderia mallei GB8 horse 4
[22] = biological target: HLA-C*12:03; experiment: IEDB peptide-MHC binding, purified MHC/direct/fluorescence; filed as Kd, often an IC50 or EC50 that approximates it; ≥ and ≤ were set here for values at or beyond the usual limits of such assays
[23] = biological target: HLA-A*02:01; experiment: as above; details: source organism: Camelpox virus M-96
[24] = biological target: HLA-C*05:01; experiment: as above; details: source organism: Vaccinia virus Copenhagen
[25] = biological target: HLA-A*69:01; experiment: as above; details: source organism: Camelpox virus M-96
[26] = source organism: SARS coronavirus Tor2
[27] = source organism: Escherichia coli F11
[28] = source organism: Vaccinia virus WR
[29] = source organism: Dengue virus 2 Jamaica/1409/1983
[30] = source organism: Dengue virus 1 Brazil/97-11/1997
[31] = source organism: Dengue virus 3 Martinique/1243/1999
[32] = source organism: Vaccinia virus Copenhagen

Sequence: RPIFEWIEA
Kd [1, 26]: 296 nM
Kd [2, 26]: 378 nM
Kd [3, 26]: 234 nM
Kd [4, 26]: 100 nM
Kd [5, 26]: 416 nM

Kd [6, 27]: 0.8 nM
Kd [7, 27]: 13.5 nM
Kd [8]: 1460 nM
Sequence: RTDAWSYPV

Sequence: SPETQQMII
Kd [1, 28]: 845 nM
Kd [2, 28]: 408 nM
Kd [3, 28]: 11.4 nM
Kd [4, 28]: 19500 nM
Kd [5, 28]: 105 nM

Sequence: STASSWSY
Kd ([7]; source organism: Influenza A virus (A/swine/Ohio/24366/2007(H1N1))): ≥ 20000 nM

Sequence: STSTWVTYGT
Kd [9, 29]: 1120 nM
Kd [10, 29]: 130 nM
Kd [11, 29]: 72.8 nM

Sequence: VASVELPNSL
Kd [9, 30]: 149 nM
Kd [10, 30]: 4530 nM

Sequence: VASVNMVSRL
Kd [9, 31]: 1050 nM
Kd [10, 31]: 2240 nM

Sequence: VLPHLCLDYK
Kd [12]: ≥ 69400 nM
Kd [13]: 26.1 nM
Kd [14]: 19300 nM
Kd [1, 28]: ≥ 69900 nM
Kd [15]: 1320 nM
Kd [16]: 1760 nM
Kd [17]: ≥ 70400 nM
Kd [2, 28]: ≥ 69600 nM
Kd [18]: 194 nM
Kd [19]: ≥ 70000 nM
Kd [3, 28]: ≥ 69900 nM
Kd [4, 28]: ≥ 69900 nM
Kd [20]: ≥ 20200 nM
Kd [5, 28]: ≥ 69600 nM
Kd [11, 28]: ≥ 69800 nM

Sequence: VPHSVFIASA
Kd [1, 28]: 8490 nM
Kd [2, 28]: 528 nM
Kd [3, 28]: ≥ 69900 nM
Kd [4, 28]: 0.286 nM
Kd [5, 28]: ≥ 69600 nM

Sequence: WAWPFAAVL
Kd [21]: 53.5 nM
Kd ([22]; source organism: Burkholderia mallei GB8 horse 4): ≤ 1 nM

Sequence: YFDDVTAFL
Kd [23]: 5 nM
Kd [24]: 14 nM
Kd [25]: 428 nM

Sequence: YLDYDTIYV
Kd [6, 32]: 0.4 nM
Kd [24]: ≤ 1 nM

Sequence: YLYASFCTV
Kd [6, 32]: 3.2 nM
Kd [22, 32]: 34 nM
